Results taken from US20210332382A1.

Experiments:
[1] = target: Adenovirus delta 24, serotype 5 virus with a modified knob from serotype 3 adenovirus (AdV 5/3), whole virus particles; assay: MP-SPR, peptide over AdV on APTES sensor, water, Min (after flush, no peptide in solution)
[2] = target: Adenovirus delta 24, serotype 5 virus with a modified knob from serotype 3 adenovirus (AdV 5/3), whole virus particles; assay: MP-SPR, peptide over AdV on APTES sensor, water, Max (100 µM peptide in solution)
[3] = target: Adenovirus delta 24, serotype 5 virus with a modified knob from serotype 3 adenovirus (AdV 5/3), whole virus particles; assay: MP-SPR, peptide over AdV on APTES sensor, A195 buffer, Min (after flush, no peptide in solution)
[4] = target: Adenovirus delta 24, serotype 5 virus with a modified knob from serotype 3 adenovirus (AdV 5/3), whole virus particles; assay: MP-SPR, peptide over AdV on APTES sensor, A195 buffer, Max (100 µM peptide in solution)

Binder | Adsorbed Peptides SPR response [1] | Mass Peptide [1] | Mass/Area Peptide [1] | Moles peptide [1] | Adsorbed Peptides SPR response [2] | Mass Peptide [2] | Mass/Area Peptide [2] | Moles peptide [2] | Adsorbed Peptides SPR response [3] | Mass Peptide [3] | Mass/Area Peptide [3] | Moles peptide [3] | Adsorbed Peptides SPR response [4] | Mass Peptide [4] | Mass/Area Peptide [4] | Moles peptide [4]
KKKKKKKKKVFGIELMEVDPIGHLYIFAT [PEP1456 = …-… (9K-MAGE-A3 peptide, MAGE-A3 161-180 with a 9-lysine tail at the amino terminus)] | 0.029 Δ° | 0.14 ng | 17.4 ng/cm^2 | 4e-14 mol | 0.13 Δ° | 0.61 ng | 78.2 ng/cm^2 | 1.8e-13 mol | 0.276 Δ° | 1.3 ng | 166 ng/cm^2 | 3.81e-13 mol | 0.371 Δ° | 1.75 ng | 223 ng/cm^2 | 5.12e-13 mol
KKKKKKYLAMPFATPMEAELARRSLA | 0.0184 Δ° | 0.09 ng | 11 ng/cm^2 | 2.88e-14 mol | 0.0386 Δ° | 0.18 ng | 23.2 ng/cm^2 | 6.05e-14 mol | 0.012 Δ° | 0.06 ng | 7.2 ng/cm^2 | 1.88e-14 mol | 0.044 Δ° | 0.21 ng | 26.4 ng/cm^2 | 6.89e-14 mol
KKKKKKVFGIELMEVDPIGHLYIFAT [PEP1455 = KKKKKK-… (6K-MAGE-A3 peptide, MAGE-A3 161-180 with a 6-lysine tail at the amino terminus)] | 0.0674 Δ° | 0.32 ng | 40.4 ng/cm^2 | 1.05e-13 mol | 0.153 Δ° | 0.72 ng | 91.9 ng/cm^2 | 2.38e-13 mol | 0.0174 Δ° | 0.08 ng | 10.4 ng/cm^2 | 2.7e-14 mol | 0.078 Δ° | 0.37 ng | 46.8 ng/cm^2 | 1.21e-13 mol
